T1: soluble hFKN-SEAP (extracellular region of human fractalkine conjugated to secreted alkaline phosphatase) (UniProt P78423 25-341)
T1 chain: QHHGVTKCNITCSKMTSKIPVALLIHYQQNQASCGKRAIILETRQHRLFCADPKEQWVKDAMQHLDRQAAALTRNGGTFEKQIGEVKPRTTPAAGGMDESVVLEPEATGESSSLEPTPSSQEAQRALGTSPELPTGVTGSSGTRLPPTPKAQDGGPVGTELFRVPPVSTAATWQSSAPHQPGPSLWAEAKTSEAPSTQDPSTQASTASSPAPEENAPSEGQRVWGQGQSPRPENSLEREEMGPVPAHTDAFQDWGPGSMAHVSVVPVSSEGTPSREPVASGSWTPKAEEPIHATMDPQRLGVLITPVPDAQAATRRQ

T2: recombinant human FKN (R&D Systems, Catalog No. 362-CX/CF) (UniProt P78423 25-100)
T2 chain: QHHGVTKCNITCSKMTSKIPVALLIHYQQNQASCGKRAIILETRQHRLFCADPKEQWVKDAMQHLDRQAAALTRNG


Key:
Assay in all cases: BIACORE
[1] = target: T1, soluble hFKN-SEAP (extracellular region …)
[2] = target: T2, recombinant human FKN (R&D Systems, …)
[3] = target: cynomolgus FKN-SEAP (human;)

Binder | Kd [1] [pM] | Kd [3] [pM] | further results
humanized anti-hFKN mAb H3L2-IgG2 (antibody, V domains shown) VH: QVQLVQSGAEVKKPGASVKVSCKASGYTFTNYYIHWVKQAPGQGLEWIGWIYPGDGSPKFNERFKGRTTLTADKSTNTAYMLLSSLRSDDTAVYFCATGPTDGDYFDYWGQGTTVTVSS VL: DIQMTQSPSSLSASVGDRVTITCRASGNIHNFLAWYQQKPGKAPKFLVYNEKTLADGVPSRFSGSGSGTQYTLTISSLQPEDFATYFCQQFWSTPYTFGGGTKVEIK | 8.84 |  | 
mouse anti-hFKN mAb clone 3A5-2 (antibody, V domains shown) VH: QVQLQQSGPELVKPGASVKMSCKASGYTFTNYYIHWVKQRPGQGLEWIGWIYPGDGSPKFNERFKGKTTLTADKSSNTAYMLLSSLTSEDSAIYFCATGPTDGDYFDYWGQGTTLTVSS VL: DIQMTQSPASLSASVGETVTITCRASGNIHNFLAWYQQKQGKSPQFLVYNEKTLADGVPSRFSGSGSGTQYSLKINSLQPEDFGIYFCQQFWSTPYTFGGGTKLEIK |  |  | Kd [2]: 600 pM
H3L2 (antibody, V domains shown) VH: QVQLVQSGAEVKKPGASVKVSCKASGYTFTNYYIHWVKQAPGQGLEWIGWIYPGDGSPKFNERFKGRTTLTADKSTNTAYMLLSSLRSDDTAVYFCATGPTDGDYFDYWGQGTTVTVSS VL: DIQMTQSPSSLSASVGDRVTITCRASGNIHNFLAWYQQKPGKAPKFLVYNEKTLADGVPSRFSGSGSGTQYTLTISSLQPEDFATYFCQQFWSTPYTFGGGTKVEIK |  | 9.62 | 
H3L4 (antibody, V domains shown) VH: QVQLVQSGAEVKKPGASVKVSCKASGYTFTNYYIHWVKQAPGQGLEWIGWIYPGDGSPKFNERFKGRTTLTADKSTNTAYMLLSSLRSDDTAVYFCATGPTDGDYFDYWGQGTTVTVSS VL: DIQMTQSPSSLSASVGDRVTITCRASGNIHNFLAWYQQKPGKAPKLLIYNEKTLADGVPSRFSGSGSGTDYTLTISSLQPEDFATYFCQQFWSTPYTFGGGTKVEIK |  | 12 | 
humanized anti-hFKN mAb H3-2L2-IgG2 (antibody, V domains shown) VH: QVQLVQSGAEVKKPGASVKVSCKASGYTFTNYYIHWVKQAPGQGLEWIGWIYPGDGSPKFNERFKGRTTLTADKSTNTAYMLLSSLRSEDTAVYFCATGPTDGDYFDYWGQGTTVTVSS VL: DIQMTQSPSSLSASVGDRVTITCRASGNIHNFLAWYQQKPGKAPKFLVYNEKTLADGVPSRFSGSGSGTQYTLTISSLQPEDFATYFCQQFWSTPYTFGGGTKVEIK | 5.92 |  | 
H3-2L4 (antibody, V domains shown) VH: QVQLVQSGAEVKKPGASVKVSCKASGYTFTNYYIHWVKQAPGQGLEWIGWIYPGDGSPKFNERFKGRTTLTADKSTNTAYMLLSSLRSEDTAVYFCATGPTDGDYFDYWGQGTTVTVSS VL: DIQMTQSPSSLSASVGDRVTITCRASGNIHNFLAWYQQKPGKAPKLLIYNEKTLADGVPSRFSGSGSGTDYTLTISSLQPEDFATYFCQQFWSTPYTFGGGTKVEIK |  | 7.71 | 
mouse-human chimeric 3A5-2 mAb (antibody, V domains shown) VH: QVQLQQSGPELVKPGASVKMSCKASGYTFTNYYIHWVKQRPGQGLEWIGWIYPGDGSPKFNERFKGKTTLTADKSSNTAYMLLSSLTSEDSAIYFCATGPTDGDYFDYWGQGTTLTVSS VL: DIQMTQSPASLSASVGETVTITCRASGNIHNFLAWYQQKQGKSPQFLVYNEKTLADGVPSRFSGSGSGTQYSLKINSLQPEDFGIYFCQQFWSTPYTFGGGTKLEIK | 7.13 |  | 
chimeric (antibody, V domains shown) VH: QVQLQQSGPELVKPGASVKMSCKASGYTFTNYYIHWVKQRPGQGLEWIGWIYPGDGSPKFNERFKGKTTLTADKSSNTAYMLLSSLTSEDSAIYFCATGPTDGDYFDYWGQGTTLTVSS VL: DIQMTQSPASLSASVGETVTITCRASGNIHNFLAWYQQKQGKSPQFLVYNEKTLADGVPSRFSGSGSGTQYSLKINSLQPEDFGIYFCQQFWSTPYTFGGGTKLEIK |  | 6.62 | 
H3-2L2 (antibody, V domains shown) VH: QVQLVQSGAEVKKPGASVKVSCKASGYTFTNYYIHWVKQAPGQGLEWIGWIYPGDGSPKFNERFKGRTTLTADKSTNTAYMLLSSLRSEDTAVYFCATGPTDGDYFDYWGQGTTVTVSS VL: DIQMTQSPSSLSASVGDRVTITCRASGNIHNFLAWYQQKPGKAPKFLVYNEKTLADGVPSRFSGSGSGTQYTLTISSLQPEDFATYFCQQFWSTPYTFGGGTKVEIK |  | 6.75 | 
humanized anti-hFKN mAb H3-L4-IgG2 (antibody, V domains shown) VH: QVQLVQSGAEVKKPGASVKVSCKASGYTFTNYYIHWVKQAPGQGLEWIGWIYPGDGSPKFNERFKGRTTLTADKSTNTAYMLLSSLRSDDTAVYFCATGPTDGDYFDYWGQGTTVTVSS VL: DIQMTQSPSSLSASVGDRVTITCRASGNIHNFLAWYQQKPGKAPKLLIYNEKTLADGVPSRFSGSGSGTDYTLTISSLQPEDFATYFCQQFWSTPYTFGGGTKVEIK | 6.43 |  | 
humanized anti-hFKN mAb H3-2L4-IgG2 (antibody, V domains shown) VH: QVQLVQSGAEVKKPGASVKVSCKASGYTFTNYYIHWVKQAPGQGLEWIGWIYPGDGSPKFNERFKGRTTLTADKSTNTAYMLLSSLRSEDTAVYFCATGPTDGDYFDYWGQGTTVTVSS VL: DIQMTQSPSSLSASVGDRVTITCRASGNIHNFLAWYQQKPGKAPKLLIYNEKTLADGVPSRFSGSGSGTDYTLTISSLQPEDFATYFCQQFWSTPYTFGGGTKVEIK | 5.34 |  | 
HK2L4 (antibody, V domains shown) VH: QVQLVQSGAEVKKPGASVKVSCKASGYTFTNYYIHWVRQAPGQGLEWIGWIYPGDGSPKFNERFKGRTTMTADTSTSTAYMELSSLRSEDTAVYFCARGPTDGDYFDYWGQGTTVTVSS VL: DIQMTQSPSSLSASVGDRVTITCRASGNIHNFLAWYQQKPGKAPKLLIYNEKTLADGVPSRFSGSGSGTDYTLTISSLQPEDFATYFCQQFWSTPYTFGGGTKVEIK |  | 26 | 
